These results are taken from patent publication US20030236190A1 (published 2003).

Non-standard residues stand in square brackets, D forms with d. No end group written: not given here.

The chains are these.
B1: S442 (peptide)
peptide 1: ESFYDWFERQLGGGGK
peptide 2: AWVQCEVYGRGCPS
modifications: not fully specified (bridges); cysteine pairing not given here; also: bond at chain A 16 to a chain's C-terminus
B2: S439 (peptide)
peptide 1: ESFYDWFERQLGGGGK
peptide 2: QEWAWVQCEVYGRGCPS
modifications: not fully specified (bridges); cysteine pairing not given here; also: K16 of chain 1 chemically linked to C-terminus of chain 2 (C-C on a lysine)
B3: S456 (peptide)
peptide 1: XGSLDESFYDWFERQLGKK
peptide 2: XKEWLDQEWAWVQCEVYGRGCPSEE
modifications: not fully specified; N-terminal Ald
B4: S441 (peptide)
peptide 1: ESFYDWFERQLGGGGK
peptide 2: WAWVQCEVYGRGCPS
modifications: not fully specified (bridges); cysteine pairing not given here; also: K16 of chain 1 chemically linked to C-terminus of chain 2 (C-C on a lysine)
B5: S437 (peptide)
peptide 1: ESFYDWFERQLGGGGK
peptide 2: LDQEWAWVQCEVYGRGCPS
modifications: not fully specified (bridges); cysteine pairing not given here; also: K16 of chain 1 chemically linked to C-terminus of chain 2 (C-C on a lysine)
B6: S438 (peptide)
peptide 1: ESFYDWFERQLGGGGK
peptide 2: DQEWAWVQCEVYGRGCPS
modifications: not fully specified (bridges); cysteine pairing not given here; also: K16 of chain 1 chemically linked to C-terminus of chain 2 (C-C on a lysine)
B7: S440 (peptide)
peptide 1: ESFYDWFERQLGGGGK
peptide 2: EWAWVQCEVYGRGCPS
modifications: not fully specified (bridges); cysteine pairing not given here; also: K16 of chain 1 chemically linked to C-terminus of chain 2 (C-C on a lysine)
B8: S325 (peptide)
peptide 1: XGSLDESFYDWFERQLGKK
peptide 2: XGSLDESFYDWFERQLGKK
modifications: N-terminal Lig′ coupled to linker 9
notes: dimer, N-N
B9: S374 (peptide)
peptide 1: XGSLDESFYDWFERQLGKK
peptide 2: XGSLDESFYDWFERQLGKK
modifications: not fully specified; N-terminal Ald (aldehyde from periodate oxidation of serine) coupled to linker 17
notes: dimer, N-N
B10: S333 (peptide)
peptide 1: XGSLDESFYDWFERQLGKK
peptide 2: XGSLDESFYDWFERQLGKK
modifications: N-terminal Lig′ coupled to linker 22
notes: dimer, N-N
B11: S376 (peptide)
peptide 1: XGSLDESFYDWFERQLGKK
peptide 2: XGSLDESFYDWFERQLGKK
modifications: N-terminal Ald coupled to linker 19
notes: dimer, N-N
B12: S360 (peptide)
peptide 1: XDWLQRNANFYDWFVAEL
peptide 2: XDWLQRNANFYDWFVAEL
modifications: N-terminal Lig′ coupled to linker 23
notes: dimer, N-N
B13: S329 (peptide)
peptide 1: XFHENFYDWFVRQVSKK
peptide 2: XFHENFYDWFVRQVSKK
modifications: N-terminal Lig′ coupled to linker 17
notes: dimer, N-N
B14: S359 (peptide)
peptide 1: XDWLQRNANFYDWFVAEL
peptide 2: XDWLQRNANFYDWFVAEL
modifications: N-terminal Lig′ coupled to linker 9
notes: dimer, N-N
B15: S335 (peptide)
peptide 1: GSLDESFYDWFERQLGKKX
peptide 2: GSLDESFYDWFERQLGKKX
modifications: not fully specified; C-terminal Lig coupled to linker 22
notes: dimer, C-C
B16: S379 (peptide)
peptide 1: GSLDESFYDWFERQLGKKKX
peptide 2: GSLDESFYDWFERQLGKKKX
modifications: C-terminal Lys carrying Ald coupled to linker 19
notes: dimer, C-C
B17: S361 (peptide)
peptide 1: GSLDESFYDWFERQLGKKX
peptide 2: GSLDESFYDWFERQLGKKX
modifications: C-terminal Lig′ coupled to linker 24
notes: dimer, C-C
B18: S362 (peptide)
peptide 1: XGSLDESFYDWFERQLGKK
peptide 2: XGSLDESFYDWFERQLGKK
modifications: N-terminal Lig′ coupled to linker 24
notes: dimer, N-N
B19: S381 (peptide)
peptide 1: EEDWLQRNANFYDWFVAELX
peptide 2: EEDWLQRNANFYDWFVAELX
modifications: C-terminal Lig′ coupled to linker 23
notes: dimer, C-C
B20: S354 (peptide)
peptide 1: XGSLDESFYDWFERQLGKK
peptide 2: XGSLDESFYDWFERQLGKK
modifications: N-terminal Lig′ coupled to linker 14
notes: dimer, N-N
B21: S334 (peptide)
peptide 1: XGGGFHENFYDWFVRQVSKK
peptide 2: XGGGFHENFYDWFVRQVSKK
modifications: N-terminal Lig′ coupled to linker 22
notes: dimer, N-N
B22: S352 (peptide)
peptide 1: XGGGFHENFYDWFVRQVSKK
peptide 2: XGGGFHENFYDWFVRQVSKK
modifications: N-terminal Lig′ coupled to linker 21
notes: dimer, N-N
B23: S350 (peptide)
peptide 1: GSLDESFYDWFERQLGKKX
peptide 2: GSLDESFYDWFERQLGKKX
modifications: not fully specified; C-terminal Lig coupled to linker 21
notes: dimer, C-C
B24: S378 (peptide)
peptide 1: GSLDESFYDWFERQLGKKKX
peptide 2: GSLDESFYDWFERQLGKKKX
modifications: C-terminal Lys carrying Ald coupled to linker 17
notes: dimer, C-C

One assay addresses T1, Soluble IGF-1R (R&D Systems, Cat. # 391-GR/CF); recombinant human IGF-1R (human, UniProt P08069 31-935).
T1 construct: extracellular domain; Eu3+-labelled in the TR-FRET assays; also called sIGF-1R; rhIGF-1R
In words: phage ELISA, vs IR. For orientation: An ELISA detects its analyte on a solid surface through an enzyme-linked reagent.
In the case of YRGMLVLGRISGGAGKAASERPARIGQKVSAVNFYDWFV [A6L-0-H3-IR], the “IGF-1R/IR Comparison” value came out at 13 ratio.
On the same count and under the same terms, the result for RGAVAGFHDQFYDWFDRQVSRVHKFG [H2CA-4-E9-IGFR] reads 3 ratio.
Consider CCTTEMVVMDARDDPFYHKLSELVTGG [B6Hα-1-B5-IR], for which the “IGF-1R/IR Comparison” value was 20.5 ratio.

The target in the next assay is T1, Soluble IGF-1R (R&D Systems, Cat. # …). In words: phage ELISA vs milk.
On to YRGMLVLGRISGGAGKAASERPARIGQKVSAVNFYDWFV [A6L-0-H3-IR], for which the “Ratio over Background” value is 26 fold.
Take RGAVAGFHDQFYDWFDRQVSRVHKFG [H2CA-4-E9-IGFR]: the “Ratio over Background” value stood at 5.6 fold.
On the same count and under the same terms, the same measure for CCTTEMVVMDARDDPFYHKLSELVTGG [B6Hα-1-B5-IR]: 20.5 fold.

For a further assay, the target named is human insulin receptor (HIR) (human, UniProt P06213 28-1382, limits assumed). Description: 125I-insulin competition, solubilised HIR.
By Kd is commonly meant the concentration at which binding is half-saturated. High values mean weaker binding, low ones tighter binding. In the case of B1, binding was put at a Kd of 160 nM.
As to B2, the affinity, expressed as Kd, was 46 nM.
Turning to WLDQEWAWVQCEVYGRGCPSGGSGGSGSLDESFYDWFERQLG [S457], the Kd was 1.6 nM.
WLDQEWAWVQCEVYGRGCPSGGSGGSGSLDESFYDWFERQLG [S458] yielded a Kd of 3.2 nM.
Same read-out and setting: the same measure for ESFYDWFERQL [S399]: 95 nM.
B3 yielded a Kd of 2.4 nM.
B4: binding was characterised by a dissociation constant (Kd) of 120 nM.
In turn, GSLDESFYDWFERQLGGGSGGSWLDQEWAWVQCEVYGRGCPS [S459] gave a Kd of 0.076 nM.
GSLDESFYDWFERQLGGGSGGSWLDEEWAQVQCEVYGRGCPS [S543] returned a Kd of 0.019 nM.
In the case of B5, the Kd worked out at 0.69 nM.
For the molecule B6, binding was characterised by a dissociation constant (Kd) of 30 nM.
The molecule ESFYDWFERQ [S400] returned a Kd of 630 nM.
As for B7, the Kd came to 99 nM.

The target in another assay is T2, human insulin receptor (HIR) (human, UniProt P06213 28-1382, limits assumed).
T2 construct: Detergent-solubilised receptor; The natural receptor is an alpha2-beta2 heterotetramer cleaved from one precursor
In words: 125I-insulin displacement, solubilised HIR.
In turn, B8 displayed a Kd of 46 nM.
GSLDESFYDWFERQLG (also called RP9 minus terminal lysines) [S386] showed a Kd of 320 nM.
Still for that read-out and setting: the result for LDESFYDWFERQLG [S388] reads 340 nM; that for B9, 180 nM.
Regarding B10, the Kd was 140 nM.
GSLDESFYDWFERQ [S394]: the Kd worked out at 91 nM.
Turning to B11, the equilibrium dissociation constant (Kd) turned out to be 160 nM.
Molecule KHLCVLEELFWGASLFGYCSGKK [S331] displayed a Kd of 1600 nM.
B12 had a Kd of 990 nM.
Same read-out and setting: the result for B13 reads 2700 nM; that for B14, 700 nM.
On the same count and under the same terms, the same measure for SLDESFYDWFERQLG [S387]: 630 nM; for B15: 98 nM; for B16: 56 nM.
For the molecule PLRESRNFYDWFVQQLE [S366], the Kd stood at 370 nM.
For the molecule DLWFNAKEDMNFYDWFVWQLR [S342], the Kd was determined as 1800 nM.
Still for that read-out and setting: the result for B17 reads 2200 nM.
For the molecule RMYFSTGAPQNFYDWFVQEWD [S365], the dissociation constant Kd was 10000 nM.
Consider GSLDESFYDWFERQL [S395], for which binding was characterised by a dissociation constant (Kd) of 8100 nM.
As for B18, the Kd was found to be 110 nM.
Regarding GIISQSCPESFYDWFAGQVSDPWWC[dW] (cysteine pairing not given here, also called G33; H2CA-4-G9-IGFR) [S326], binding was characterised by a dissociation constant (Kd) of 590 nM.
Same read-out and setting: the result for GSLDESFYDWFERQLGKKKS (not fully specified; printed as GSLDESFYDWFERQLGKKK(S)) [S373] reads 120 nM; that for B19, 120 nM.
As for B20, binding was characterised by a dissociation constant (Kd) of 39 nM.
On the same count and under the same terms, the same measure for GSLDESFYDWFERQLGKK (also called RP9) [S371]: 630 nM.
In turn, B21 had a Kd of 1600 nM.
On to B22, for which the Kd turned out to be 660 nM.
Still for that read-out and setting: the same measure for SGSLDESFYDWFERQLGKK [S372]: 200 nM; for B23: 470 nM.
In the case of B24, the Kd amounted to 65 nM.
For the molecule FYDWFERQLG [S392], the Kd is 3800 nM.
